Results as given in patent US20230227538A1 (University of California, published 2023).
Where “and” joins values, the source holds several entries; their conditions need not be identical. Equal entries are not always repeated.

Experiments:
[1] = target: Spike protein of live SARS-CoV-2 (isolate France/IDF0372/2020) (SARS-CoV-2, UniProt P0DTC2 14-1273); experiment: cell-based or functional assay
[2] = target: T1, SARS-CoV-2 Spike ectodomain, stabilized prefusion trimer (spike ECD, Spike^S2P) (SARS-CoV-2); experiment: SPR on captured Spike^S2P
T1 construct: also called SC2 Spike ECD; Spike trimer

[3] = target: T1, SARS-CoV-2 Spike ectodomain, stabilized …; experiment: SPR, fast phase of a biphasic dissociation from Spike^S2P
[4] = target: T1, SARS-CoV-2 Spike ectodomain, stabilized …; experiment: SPR, slow phase of a biphasic dissociation from Spike^S2P
[5] = target: T1, SARS-CoV-2 Spike ectodomain, stabilized …; experiment: SPR
[6] = target: T1, SARS-CoV-2 Spike ectodomain, stabilized …; experiment: SPR, no measurable dissociation over ten minutes
[7] = target: T1, SARS-CoV-2 Spike ectodomain, stabilized …
[8] = target: T1, SARS-CoV-2 Spike ectodomain, stabilized …; remark: listed apart in the source
[9] = target: T1, SARS-CoV-2 Spike ectodomain, stabilized …; experiment: SPR, Spike^S2P captured on a StreptactinXT chip

Row | Binder | fold gain in KD against Nb6 [2] [fold] | koff [3] [s⁻¹] | koff [4] [s⁻¹] | EC50 [8] [nM] | also measured
1 | Nb6-tri (trivalent Nb6 with two 20 amino acid linkers) (VHH) QVQLVESGGGLVQAGGSLRLSCAASGIIFGRNAMGWYRQAPGKERELVAGITRRGSITYYADSVKGRFTISRDNAKNTVYLQMNSLKPEDTAVYYCAADPASPAPGDYWGQGTQVTVSSGGGGSGGGGSGGGGSGGGGSQVQLVESGGGLVQAGGSLRLSCAASGIIFGRNAMGWYRQAPGKERELVAGITRRGSITYYADSVKGRFTISRDNAKNTVYLQMNSLKPEDTAVYYCAADPASPAPGDYWGQGTQVTVSSGGGGSGGGGSGGGGSGGGGSQVQLVESGGGLVQAGGSLRLSCAASGIIFGRNAMGWYRQAPGKERELVAGITRRGSITYYADSVKGRFTISRDNAKNTVYLQMNSLKPEDTAVYYCAADPASPAPGDYWGQGTQVTVSS | > 200000 | 0.029 | < 1e-06 | – | IC50, plaque assay with live SARS-CoV-2 on VeroE6 cells [1]: 0.16 nM
2 | mNb6-tri (trivalent mNb6 with a 20 amino acid linker) (VHH) QVQLVESGGGLVQAGGSLRLSCAASGYIFGRNAMGWYRQAPGKERELVAGITRRGSITYYADSVKGRFTISRDNAKNTVYLQMNSLKPEDTAVYYCAADPASPAYGDYWGQGTQVTVSSGGGGSGGGGSGGGGSGGGGSQVQLVESGGGLVQAGGSLRLSCAASGYIFGRNAMGWYRQAPGKERELVAGITRRGSITYYADSVKGRFTISRDNAKNTVYLQMNSLKPEDTAVYYCAADPASPAYGDYWGQGTQVTVSSGGGGSGGGGSGGGGSGGGGSQVQLVESGGGLVQAGGSLRLSCAASGYIFGRNAMGWYRQAPGKERELVAGITRRGSITYYADSVKGRFTISRDNAKNTVYLQMNSLKPEDTAVYYCAADPASPAYGDYWGQGTQVTVSS | – | – | – | – | Kd [5]: < 0.001 nM; dissociation half-life t½ [5]: > 192 h; IC50, live SARS-CoV-2 infection assay [1]: 54 pM and 2.3 ng/mL; koff [6]: < 1e-06 s⁻¹
3 | Nb6-bi (bivalent Nb6 with a 15 amino acid linker) (VHH) QVQLVESGGGLVQAGGSLRLSCAASGIIFGRNAMGWYRQAPGKERELVAGITRRGSITYYADSVKGRFTISRDNAKNTVYLQMNSLKPEDTAVYYCAADPASPAPGDYWGQGTQVTVSSGGGGSGGGGSGGGGSQVQLVESGGGLVQAGGSLRLSCAASGIIFGRNAMGWYRQAPGKERELVAGITRRGSITYYADSVKGRFTISRDNAKNTVYLQMNSLKPEDTAVYYCAADPASPAPGDYWGQGTQVTVSS | 750 | 0.027 | 0.00031 | – | –
4 | Nb6 (AeroNab6, NbCOV6, clone pNbCOV006A) (VHH, also called AeroNab6 MASC monomer; Parent clone (NbCOV6)) VHH: QVQLVESGGGLVQAGGSLRLSCAASGIIFGRNAMGWYRQAPGKERELVAGITRRGSITYYADSVKGRFTISRDNAKNTVYLQMNSLKPEDTAVYYCAADPASPAPGDYWGQGTQVTVSS | – | – | – | 359 | IC50 [7]: 370 nM; koff [2]: 0.056 s⁻¹; Kd [9]: 210 nM
5 | mNb6 (matured Nb6, mNbCOV6, AeroNab6m) (VHH) VHH: QVQLVESGGGLVQAGGSLRLSCAASGYIFGRNAMGWYRQAPGKERELVAGITRRGSITYYADSVKGRFTISRDNAKNTVYLQMNSLKPEDTAVYYCAADPASPAYGDYWGQGTQVTVSS | – | – | – | 0.056 | –
